For one molecule, fold increase in luciferase activity with VP16-PALB2 results are on record in article PMC5539989.

This assay addresses GAL4 DBD-BRCA1 wild type (C-terminal region) (human) (UniProt P38398). The assay is described as follows: two-hybrid; mammalian two-hybrid: GAL4 DBD-BRCA1 as bait, VP16 AD-PALB2 as prey, co-transfected with the pG5Luc luciferase reporter and the phGR-TK Renilla control; read-out is luciferase activity above that of the BRCA1 construct alone. For orientation: Reporter assays use an easily measured gene product as a stand-in for the process of interest.
Chain of UniProt P38398 (P38398 1396-1863): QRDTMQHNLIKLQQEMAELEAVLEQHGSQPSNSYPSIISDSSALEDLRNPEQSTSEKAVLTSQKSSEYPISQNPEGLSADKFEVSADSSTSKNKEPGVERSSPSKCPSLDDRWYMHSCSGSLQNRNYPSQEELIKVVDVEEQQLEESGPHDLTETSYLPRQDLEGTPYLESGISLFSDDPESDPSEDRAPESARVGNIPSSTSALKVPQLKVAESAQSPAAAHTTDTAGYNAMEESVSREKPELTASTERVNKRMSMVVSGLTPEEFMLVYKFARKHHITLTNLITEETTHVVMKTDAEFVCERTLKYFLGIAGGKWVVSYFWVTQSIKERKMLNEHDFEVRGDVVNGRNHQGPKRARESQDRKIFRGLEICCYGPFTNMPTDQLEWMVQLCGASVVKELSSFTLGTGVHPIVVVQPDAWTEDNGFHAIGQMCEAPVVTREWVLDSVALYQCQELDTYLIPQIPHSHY

B1: VP16 AD–PALB2 fusion protein (PALB2 aa 1–319) (domain or fragment)
chain: MDEPPGKPLSCEEKEKLKEKLAFLKREYSKTLARLQRAQRAEKIKHSIKKTVEEQDCLSQQDLSPQLKHSEPKNKICVYDKLHIKTHLDEETGEKTSITLDVGPESFNPGDGPGGLPIQRTDDTQEHFPHRVSDPSGEQKQKLPSRRKKQQKRTFISQERDCVFGTDSLRLSGKRLKEQEEISSKNPARSPVTEIRTHLLSLKSELPDSPEPVTEINEDSVLIPPTAQPEKGVDTFLRRPNFTRATTVPLQTLSDSGSSQHLEHIPPKGSSELTTHDLKNIRFTSPVSLEAQGKKMTVSTDNLLVNKAISKSGQLPTSS
Take B1: the fold increase in luciferase activity with VP16-PALB2 is 3.8 fold.
